The target in assay [1] is Interleukin-8 receptor molecules on purified human neutrophils.
Assay [2] shares this target. Put plainly: saturation binding of radioligand to purified human neutrophils, analysis of binding curves.
For assay [3] the target is unchanged. In words: radioligand binding to purified human neutrophils, with and without 1000-fold molar excess of nonlabeled IL-8.

pKd: −log10 of the molar value.

The pKd is the Kd on a negative log10 scale, so that one unit is a factor of ten. A high value points to a low Kd. In turn, “I-125-labeled human recombinant interleukin-8 (ligand)” gave a neutrophil chemotaxis in a Boyden chamber in assay [1] greater than 95%. Moreover, in assay [2], the pKd was 9.08 and the estimated maximum binding sites per cell (binding sites per cell) was 60000. In addition, the specific binding as share of total binding in assay [3] was greater than 90%.
